Source: article PMC8804602 (FEBS Open Bio, 2022)

Biological target: the molecule itself
Experiment: SEC-MALS; 25 °C, Superdex 200 Increase 10/300 GL, ~2 mg/mL, 100 μL injected, 25 mM Tris-HCl pH 8.0, 150 mM NaCl

B1: periplasmic part of MreC (residues 36-367) from Escherichia coli (domain or fragment, E. coli, UniProt P16926 36-367, looked up)
chain: SQIRTYMDTAVSPFYFVSNAPRELLDGVSQTLASRDQLELENRALRQELLLKNSELLMLGQYKQENARLRELLGSPLRQDEQKMVTQVISTVNDPYSDQVVIDKGSVNGVYEGQPVISDKGVVGQVVAVAKLTSRVLLICDATHALPIQVLRNDIRVIAAGNGCTDDLQLEHLPANTDIRVGDVLVTSGLGGRFPEGYPVAVVSSVKLDTQRAYTVIQARPTAGLQRLRYLLLLWGADRNGANPMTPEEVHRVANERLMQMMPQVLPSPDAMGPKLPEPATGIAQPTPQQPATGNAATAPAAPTQPAANRSPQRATPPQSGAQPPARAPGGQ
notes: Cell shape-determining protein MreC, E. coli BL21(DE3) strain, residues 36-367, lacks the N-terminal transmembrane region; holds the coiled coil, two six-stranded beta-barrels and the pro-rich region; the cDNA came from strain BL21(DE3); pET21b usually adds a C-terminal His6 (surmised); About 37 kDa per chain as printed; also called truncated MreC; major periplasmic domain of MreC; source: E. …
  stoichiometry N: 2
